Assay results published in US20260217860A1 (BIOCYTOGEN PHARMACEUTICALS BEIJING, published 2026).

molecular target: T1, His-tagged human MUC1 protein hMUC1(24-1158)-His (human, UniProt P15941 24-1158); test: SPR, Biacore 8K, 1:1 fit;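 also: His-tagged targets captured on the chip at roughly 100 RU, antibody analytes flowed at 1 µg/mL in HBS-EP+ pH 7.4, 50 s association, 400 s dissociation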
T1 construct: not shown: His tag

Binder	Kd	koff	kon
E-9A6-M-11E8 (bispecific antibody, Knobs-into-holes bispecific with a common light chain; also called anti-EGFR/MUC1 bispecific antibody) heavy 1: not shown heavy 2: QVQLVQSGGGVVQPGRSLRLSCAASGFTFSSYAMHWVRQAPGKGLEWVAVISDDGINKYYADSVKGRFTISRDNSKNTLYLQMNSLRAEDSAVYYCARALPTIFGVVMYFYYGLDVWGQGTTATVSSASTKGPSVFPLAPSSKSTSGGTAALGCLVKDYFPEPVTVSWNSGALTSGVHTFPAVLQSSGLYSLSSVVTVPSSSLGTQTYICNVNHKPSNTKVDKKVEPKSCDKTHTCPPCPAPELLGGPSVFLFPPKPKDTLMISRTPEVTCVVVDVSHEDPEVKFNWYVDGVEVHNAKTKPREEQYNSTYRVVSVLTVLHQDWLNGKEYKCKVSNKALPAPIEKTISKAKGQPREPQVCTLPPSREEMTKNQVSLSCAVKGFYPSDIAVEWESNGQPENNYKTTPPVLDSDGSFFLVSKLTVDKSRWQQGNVFSCSVMHEALHNHYTQKSLSLSPGK light: not shown	17.3 nM	0.00137 s⁻¹	79100 M⁻¹ s⁻¹
E-9F3-M-11E8 (bispecific antibody, Knobs-into-holes bispecific with a common light chain; also called anti-EGFR/MUC1 bispecific antibody) heavy 1: not shown heavy 2: QVQLVQSGGGVVQPGRSLRLSCAASGFTFSSYAMHWVRQAPGKGLEWVAVISDDGINKYYADSVKGRFTISRDNSKNTLYLQMNSLRAEDSAVYYCARALPTIFGVVMYFYYGLDVWGQGTTATVSSASTKGPSVFPLAPSSKSTSGGTAALGCLVKDYFPEPVTVSWNSGALTSGVHTFPAVLQSSGLYSLSSVVTVPSSSLGTQTYICNVNHKPSNTKVDKKVEPKSCDKTHTCPPCPAPELLGGPSVFLFPPKPKDTLMISRTPEVTCVVVDVSHEDPEVKFNWYVDGVEVHNAKTKPREEQYNSTYRVVSVLTVLHQDWLNGKEYKCKVSNKALPAPIEKTISKAKGQPREPQVCTLPPSREEMTKNQVSLSCAVKGFYPSDIAVEWESNGQPENNYKTTPPVLDSDGSFFLVSKLTVDKSRWQQGNVFSCSVMHEALHNHYTQKSLSLSPGK light: not shown	5.24 nM	0.000543 s⁻¹	104000 M⁻¹ s⁻¹
E-6C4-M-11E8 (bispecific antibody, Knobs-into-holes bispecific with a common light chain; also called anti-EGFR/MUC1 bispecific antibody) heavy 1: not shown heavy 2: QVQLVQSGGGVVQPGRSLRLSCAASGFTFSSYAMHWVRQAPGKGLEWVAVISDDGINKYYADSVKGRFTISRDNSKNTLYLQMNSLRAEDSAVYYCARALPTIFGVVMYFYYGLDVWGQGTTATVSSASTKGPSVFPLAPSSKSTSGGTAALGCLVKDYFPEPVTVSWNSGALTSGVHTFPAVLQSSGLYSLSSVVTVPSSSLGTQTYICNVNHKPSNTKVDKKVEPKSCDKTHTCPPCPAPELLGGPSVFLFPPKPKDTLMISRTPEVTCVVVDVSHEDPEVKFNWYVDGVEVHNAKTKPREEQYNSTYRVVSVLTVLHQDWLNGKEYKCKVSNKALPAPIEKTISKAKGQPREPQVCTLPPSREEMTKNQVSLSCAVKGFYPSDIAVEWESNGQPENNYKTTPPVLDSDGSFFLVSKLTVDKSRWQQGNVFSCSVMHEALHNHYTQKSLSLSPGK light: not shown	6.21 nM	0.000575 s⁻¹	92700 M⁻¹ s⁻¹
E-9D2-M-11E8 (bispecific antibody, Knobs-into-holes bispecific with a common light chain; also called anti-EGFR/MUC1 bispecific antibody) heavy 1: not shown heavy 2: QVQLVQSGGGVVQPGRSLRLSCAASGFTFSSYAMHWVRQAPGKGLEWVAVISDDGINKYYADSVKGRFTISRDNSKNTLYLQMNSLRAEDSAVYYCARALPTIFGVVMYFYYGLDVWGQGTTATVSSASTKGPSVFPLAPSSKSTSGGTAALGCLVKDYFPEPVTVSWNSGALTSGVHTFPAVLQSSGLYSLSSVVTVPSSSLGTQTYICNVNHKPSNTKVDKKVEPKSCDKTHTCPPCPAPELLGGPSVFLFPPKPKDTLMISRTPEVTCVVVDVSHEDPEVKFNWYVDGVEVHNAKTKPREEQYNSTYRVVSVLTVLHQDWLNGKEYKCKVSNKALPAPIEKTISKAKGQPREPQVCTLPPSREEMTKNQVSLSCAVKGFYPSDIAVEWESNGQPENNYKTTPPVLDSDGSFFLVSKLTVDKSRWQQGNVFSCSVMHEALHNHYTQKSLSLSPGK light: not shown	5.97 nM	0.000554 s⁻¹	92700 M⁻¹ s⁻¹
E-9H2-M-11E8 (bispecific antibody, Knobs-into-holes bispecific with a common light chain; also called anti-EGFR/MUC1 bispecific antibody; E-9H2-M-llE8) heavy 1: not shown heavy 2: QVQLVQSGGGVVQPGRSLRLSCAASGFTFSSYAMHWVRQAPGKGLEWVAVISDDGINKYYADSVKGRFTISRDNSKNTLYLQMNSLRAEDSAVYYCARALPTIFGVVMYFYYGLDVWGQGTTATVSSASTKGPSVFPLAPSSKSTSGGTAALGCLVKDYFPEPVTVSWNSGALTSGVHTFPAVLQSSGLYSLSSVVTVPSSSLGTQTYICNVNHKPSNTKVDKKVEPKSCDKTHTCPPCPAPELLGGPSVFLFPPKPKDTLMISRTPEVTCVVVDVSHEDPEVKFNWYVDGVEVHNAKTKPREEQYNSTYRVVSVLTVLHQDWLNGKEYKCKVSNKALPAPIEKTISKAKGQPREPQVCTLPPSREEMTKNQVSLSCAVKGFYPSDIAVEWESNGQPENNYKTTPPVLDSDGSFFLVSKLTVDKSRWQQGNVFSCSVMHEALHNHYTQKSLSLSPGK light: not shown	25.4 nM	0.0101 s⁻¹	400000 M⁻¹ s⁻¹
